Literature values, collected in paper PMC2879597.

Biological target: hIL-10/sIL-10R1 complex (Homo sapiens) (UniProt P22301)
Sequence (P22301 19-178, chain 1 of 2): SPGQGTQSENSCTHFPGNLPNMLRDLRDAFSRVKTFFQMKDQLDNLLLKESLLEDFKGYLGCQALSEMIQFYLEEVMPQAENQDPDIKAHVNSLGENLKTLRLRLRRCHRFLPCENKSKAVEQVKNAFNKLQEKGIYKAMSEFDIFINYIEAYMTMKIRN
Sequence (Q13651 22-235, chain 2 of 2, further chain): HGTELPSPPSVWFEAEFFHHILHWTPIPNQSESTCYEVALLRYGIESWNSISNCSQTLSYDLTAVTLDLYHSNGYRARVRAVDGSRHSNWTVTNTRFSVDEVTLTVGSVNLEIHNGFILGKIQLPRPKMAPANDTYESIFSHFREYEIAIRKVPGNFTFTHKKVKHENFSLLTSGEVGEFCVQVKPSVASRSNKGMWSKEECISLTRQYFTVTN

sIL-10R2 ECD, sequence (Q08334 20-220): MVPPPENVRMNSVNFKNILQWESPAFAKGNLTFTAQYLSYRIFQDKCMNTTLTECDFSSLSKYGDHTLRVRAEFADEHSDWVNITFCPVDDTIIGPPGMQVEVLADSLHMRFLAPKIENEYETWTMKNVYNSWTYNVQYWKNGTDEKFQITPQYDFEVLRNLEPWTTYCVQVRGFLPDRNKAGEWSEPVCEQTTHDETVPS

- Kd: 250 µM
Substance: sIL-10R2 ECD (from UniProt Q08334)
